These results are taken from PMC7533053, “Improving transgene expression and CRISPR‐Cas9 efficiency with molecular engineering‐based molecules”.

Data set [1] has as its target T1, β-catenin (UniProt P35222 1-781). Description: SPR; KD shown only in figure; SPR Biacore X100, CM5 chip, protein immobilized by amine coupling; RNA injected 1.5 min at 5 μL/min, six concentrations 4.1 nM-1 μM; running buffer, pH and temperature not stated.
Data set [2] concerns the target T1, β-catenin. Description: SPR; stronger than ANAM-β; KD shown only in figure; SPR Biacore X100, CM5 chip, protein immobilized by amine coupling; RNA injected 1.5 min at 5 μL/min, six concentrations 4.1 nM-1 μM; running buffer, pH and temperature not stated.

T1 sequence (P35222 whole entry): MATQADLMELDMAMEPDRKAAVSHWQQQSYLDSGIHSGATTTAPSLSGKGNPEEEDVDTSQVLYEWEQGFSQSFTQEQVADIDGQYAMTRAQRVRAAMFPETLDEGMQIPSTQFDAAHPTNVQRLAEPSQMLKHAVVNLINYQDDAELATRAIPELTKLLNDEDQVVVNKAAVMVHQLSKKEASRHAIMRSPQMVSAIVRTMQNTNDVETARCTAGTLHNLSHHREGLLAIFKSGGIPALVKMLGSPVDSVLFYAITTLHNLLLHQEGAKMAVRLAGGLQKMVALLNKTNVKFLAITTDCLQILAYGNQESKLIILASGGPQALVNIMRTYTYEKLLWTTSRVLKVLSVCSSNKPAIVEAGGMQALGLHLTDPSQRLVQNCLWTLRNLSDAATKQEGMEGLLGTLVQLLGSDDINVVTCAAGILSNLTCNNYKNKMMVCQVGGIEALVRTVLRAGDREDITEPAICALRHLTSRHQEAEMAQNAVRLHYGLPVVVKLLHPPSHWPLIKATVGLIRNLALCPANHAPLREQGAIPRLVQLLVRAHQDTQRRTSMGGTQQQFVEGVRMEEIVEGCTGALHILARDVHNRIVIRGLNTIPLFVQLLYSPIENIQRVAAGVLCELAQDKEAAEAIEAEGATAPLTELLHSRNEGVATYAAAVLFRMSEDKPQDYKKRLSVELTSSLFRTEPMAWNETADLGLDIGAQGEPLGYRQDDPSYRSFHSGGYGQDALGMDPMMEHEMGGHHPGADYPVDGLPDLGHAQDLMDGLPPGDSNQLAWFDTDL

In the case of AGGCCGAUCUAUGGACGCUAUAGGCACACCGGAUACUUUAACGAUUGGCU (structured_RNA) [ANAM-β], in the data set with β-catenin [1], the binding result is “binds”.

B1: ANAM-2Sβ (structured_RNA)
RNA: GGGAGCGGCCGAUCUAUGGACGCUAUAGGCACACCGGAUACUUUAACGAUUGGCCGCCUGCUGCGGGCCGAUCUAUGGACGCUAUAGGCACACCGGAUACUUUAACGAUUGGCCCGCAGCAGUUCCC
In the case of B1, the binding result with β-catenin [2] is recorded as “binds”.
